In the experiment the target is VEGFR2 on HUVECs (UniProt P35968 20-1356, limits assumed). Nature of the experiment: cell-based or functional assay.
Sequence of VEGFR2 on HUVECs (P35968 20-1356 limits assumed): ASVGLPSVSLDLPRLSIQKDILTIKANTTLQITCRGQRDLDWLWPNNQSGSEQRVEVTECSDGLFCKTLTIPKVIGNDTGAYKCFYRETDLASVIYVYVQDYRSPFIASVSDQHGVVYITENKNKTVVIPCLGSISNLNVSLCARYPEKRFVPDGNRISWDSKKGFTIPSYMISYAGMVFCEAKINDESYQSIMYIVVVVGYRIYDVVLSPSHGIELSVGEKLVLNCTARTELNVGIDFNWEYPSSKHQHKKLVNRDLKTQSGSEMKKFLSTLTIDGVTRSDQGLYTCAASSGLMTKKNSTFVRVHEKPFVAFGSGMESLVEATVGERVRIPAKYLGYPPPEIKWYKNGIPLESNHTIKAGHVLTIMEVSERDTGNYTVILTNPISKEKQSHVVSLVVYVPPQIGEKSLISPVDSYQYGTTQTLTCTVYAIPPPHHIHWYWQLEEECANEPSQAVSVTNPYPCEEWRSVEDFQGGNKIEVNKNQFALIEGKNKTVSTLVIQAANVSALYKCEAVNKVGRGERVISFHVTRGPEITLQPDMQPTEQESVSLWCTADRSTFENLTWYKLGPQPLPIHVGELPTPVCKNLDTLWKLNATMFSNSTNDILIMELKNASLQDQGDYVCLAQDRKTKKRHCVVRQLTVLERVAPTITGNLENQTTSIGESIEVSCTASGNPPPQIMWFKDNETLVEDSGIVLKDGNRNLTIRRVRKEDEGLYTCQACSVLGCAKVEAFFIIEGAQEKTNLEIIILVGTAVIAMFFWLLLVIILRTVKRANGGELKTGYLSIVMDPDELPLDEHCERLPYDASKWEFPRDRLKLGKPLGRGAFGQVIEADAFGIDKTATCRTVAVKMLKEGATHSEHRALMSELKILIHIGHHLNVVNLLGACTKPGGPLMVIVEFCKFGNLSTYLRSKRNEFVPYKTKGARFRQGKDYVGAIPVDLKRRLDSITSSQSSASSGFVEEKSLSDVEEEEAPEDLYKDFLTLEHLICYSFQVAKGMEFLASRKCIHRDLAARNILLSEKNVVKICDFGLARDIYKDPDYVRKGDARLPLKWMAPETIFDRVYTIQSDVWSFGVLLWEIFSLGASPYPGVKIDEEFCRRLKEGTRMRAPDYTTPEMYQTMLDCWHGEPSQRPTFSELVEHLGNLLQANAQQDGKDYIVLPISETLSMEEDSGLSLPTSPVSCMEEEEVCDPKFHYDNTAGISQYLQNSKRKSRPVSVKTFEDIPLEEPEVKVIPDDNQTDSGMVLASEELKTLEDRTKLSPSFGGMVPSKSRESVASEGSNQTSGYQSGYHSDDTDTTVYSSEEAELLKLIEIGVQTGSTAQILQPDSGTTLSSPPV

B1: VK-B8 (antibody, V domains shown)
VH: QVQLVQSGAEVKKPGSSVKVSCKAYGGTFGSYGVSWVRRAPGQGLEWMGRLIPIFGTRDYAQKFQGRVTLTADESTNTAYMELSSLRSEDTAVYYCARDGDYYGSGSYYGMDVWGQGTLVTVSS
VL: ETTLTQSPATLSVSPGERATVSCRASQSLGSNLGWFQQKPGQAPRLLIYGASTRATGIPARFSGSGSGTEFTLTISSLQSEDFAVYFCQQYNDWPITFGQGTRLEIK
Regarding B1, the “IC50, inhibition of VEGF-induced HUVEC cell migration (Figure 14)” value came out at 530 pM; the “IC50, inhibition of VEGF-induced HUVEC cell proliferation (Figure 13)” value turned out to be 14900 pM; the “IC50, inhibition of VEGF-induced HUVEC migration (modified Boyden chamber)” value was 500 pM; the “IC50, inhibition of VEGF-induced HUVEC proliferation” value amounted to 14000 pM. The “IC50, inhibition of VEGF-induced p44/p42 MAPK (Erk1/2) phosphorylation in HUVECs (ELISA)” value came to 80 pM.
